The series has as its target T1, HFR1^n-131aa-TBPm3 conjugated protein (UniProt Q9FE22).
T1 sequence: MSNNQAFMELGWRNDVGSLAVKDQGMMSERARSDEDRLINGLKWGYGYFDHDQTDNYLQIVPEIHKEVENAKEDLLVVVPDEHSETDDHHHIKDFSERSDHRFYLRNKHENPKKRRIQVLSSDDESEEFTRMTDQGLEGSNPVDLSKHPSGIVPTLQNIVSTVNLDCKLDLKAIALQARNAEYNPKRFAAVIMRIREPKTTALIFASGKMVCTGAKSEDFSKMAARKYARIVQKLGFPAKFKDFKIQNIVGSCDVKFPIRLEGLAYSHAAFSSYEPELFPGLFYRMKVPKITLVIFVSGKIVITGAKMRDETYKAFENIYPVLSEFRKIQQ

Take “COP1^L105A (Constitutive photomorphogenic1 with amino acid mutation Leu to Ala)”: the “Histochemical GUS staining of post-meiotic anther tapetum, ES transgenic versus F1 [ES x RS]” value is reported as “no staining was appear in the F1 tapetum of the same anther stage” and the “Relative expression of BECLIN1 transcript (qRT-PCR) in anther developmental stages of F1 [MS x RS]” value is on record as “When expression of BECLIN1 was checked in different anther developmental stages, it was found that their expression was abolished”.
